The text below walks through data of article PMC11440508, “Dually Labeled Neurotensin NTS1R Ligands for Probing Radiochemical and Fluorescence-Based Binding Assays” (Journal of Medicinal Chemistry, 2024).

Where “and” joins values, the source holds several entries; their conditions need not be identical. Identical values can stand only once. Like-named read-outs stand apart in the source and are kept apart here.

Assay [1] has as its target NTS1R (Homo sapiens) (UniProt P30989). Conditions: cited from earlier work.
The target is the same in assay [2]. The assay is described as follows: radioligand competition binding. As to conditions: cited from earlier work. On the technique in general: Loss of bound radioactivity is the signal in a displacement assay; it reports binding, not function.
Assay [3] deals with neurotensin NT(8-13) 8-13 (Homo sapiens) (UniProt P30990). Conditions: cited from earlier work.
Chain of neurotensin NT(8-13) 8-13 (Homo sapiens) (P30990 whole entry, looked up, tested part not stated): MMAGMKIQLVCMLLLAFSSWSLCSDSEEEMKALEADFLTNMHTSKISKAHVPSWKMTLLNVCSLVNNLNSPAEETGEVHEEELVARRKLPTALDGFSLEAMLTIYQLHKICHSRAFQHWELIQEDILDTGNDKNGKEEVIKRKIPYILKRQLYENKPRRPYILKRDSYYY
The target is the same in assay [4]. The experiment in a line: radioligand competition binding. Conditions: cited from earlier work.
Assay [5] deals with human neurotensin receptor type 2 (hNTS2R) in homogenates of HEK293T cells (human) (UniProt O95665). The assay is described as follows: radioligand binding; saturation binding of [^3H]UR-MK300 at homogenates of HEK293T-hNTS2R cells.
Chain of human neurotensin receptor type 2 (hNTS2R) in homogenates of HEK293T cells (human) (O95665 whole entry): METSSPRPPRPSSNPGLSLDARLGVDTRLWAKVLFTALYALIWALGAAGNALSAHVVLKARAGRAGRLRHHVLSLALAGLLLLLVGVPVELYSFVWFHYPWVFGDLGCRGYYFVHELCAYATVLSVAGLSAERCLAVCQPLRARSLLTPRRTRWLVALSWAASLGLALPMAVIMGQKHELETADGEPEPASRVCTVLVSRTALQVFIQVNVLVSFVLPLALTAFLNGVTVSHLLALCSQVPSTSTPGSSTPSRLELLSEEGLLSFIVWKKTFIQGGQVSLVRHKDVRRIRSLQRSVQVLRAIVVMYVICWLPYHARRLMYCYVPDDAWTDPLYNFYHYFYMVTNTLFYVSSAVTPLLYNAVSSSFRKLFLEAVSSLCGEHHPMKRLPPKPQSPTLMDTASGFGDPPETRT
Assay [6] has as its target human neurotensin receptor type 1 (hNTS1R), endogenous in HT-29 colon carcinoma cells (human (endogenous in HT-29)) (UniProt P30989). The assay is described as follows: radioligand binding; saturation binding of [^3H]UR-MK300 at intact HT-29 cells, 23 ± 1 °C.

Chain of NT(8–13) 8-13 (P30990 whole entry, looked up, tested part not stated): as the sequence (P30990 whole entry, looked up, tested part not stated) above
Chain of NTS1R (Homo sapiens) (P30989 whole entry): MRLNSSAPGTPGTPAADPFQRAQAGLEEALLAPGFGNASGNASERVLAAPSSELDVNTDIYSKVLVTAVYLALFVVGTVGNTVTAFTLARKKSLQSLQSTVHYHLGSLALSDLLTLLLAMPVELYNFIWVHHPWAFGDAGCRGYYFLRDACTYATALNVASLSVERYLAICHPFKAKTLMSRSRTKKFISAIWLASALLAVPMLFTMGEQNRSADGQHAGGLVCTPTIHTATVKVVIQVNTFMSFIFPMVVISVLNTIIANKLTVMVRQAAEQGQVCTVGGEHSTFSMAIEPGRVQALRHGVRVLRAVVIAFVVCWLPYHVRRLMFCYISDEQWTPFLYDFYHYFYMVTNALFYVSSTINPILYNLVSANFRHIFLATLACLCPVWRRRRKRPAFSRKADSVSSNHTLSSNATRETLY
Chain of NTS1R (P30989 whole entry): as above
Chain of human neurotensin receptor type 1 (hNTS1R), endogenous in HT-29 colon carcinoma cells (human (endogenous in HT-29)) (P30989 whole entry): as above

NT(8–13) 8-13 (from UniProt P30990): the Ki was 1 nM and 0.24 nM with NTS1R (Homo sapiens) [1]; 0.14 nM with NTS1R (Homo sapiens) [2].

As for NTS1R (from UniProt P30989), the Ki was 1 nM and 0.24 nM and 0.29 nM in assay [3]; 0.14 nM in assay [4].

As to [^3H]UR-MK300 (peptide), the Kd in assay [5] amounted to 0.75 nM; in assay [6], 0.41 nM.

Broadly, the Ki is the dissociation constant of the complex between target and ligand, obtained from inhibition or displacement. As usually defined, the Kd is the constant that tells how readily two partners part at equilibrium.
